Paper PMC3364216, “The RuvA Homologues from Mycoplasma genitalium and Mycoplasma pneumoniae Exhibit Unique Functional Characteristics”

Legend:
[1] = biological target: T1, RuvAMpn (Mycoplasma pneumoniae M129 (ATCC 29342), UniProt P75243 1-206); test: EMSA; no Mg2+; two complexes (I and II); 20 mM Tris-HCl pH 7.5, 1 mM DTT, 1 mM EDTA, 12.3 nM DNA, 10 ul, on ice 10 min; 8% PAGE in 0.5x TBE; +/- 10 mM Mg2+; conditions: protein: recombinant; tags: N-terminal H10 (pET-16b); chain copies: 4; four-way Holliday junction HJ11:HJ12:HJ13:HJ14
T1 sequence: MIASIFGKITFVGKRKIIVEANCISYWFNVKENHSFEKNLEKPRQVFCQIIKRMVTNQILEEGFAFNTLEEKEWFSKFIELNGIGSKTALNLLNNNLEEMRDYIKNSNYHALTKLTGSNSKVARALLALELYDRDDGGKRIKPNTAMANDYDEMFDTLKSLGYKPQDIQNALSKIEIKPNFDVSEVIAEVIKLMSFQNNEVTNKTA

[2] = biological target: T2, RuvAMge (Mycoplasma genitalium G37 (ATCC 33530), UniProt Q49424 1-205); test: EMSA; no Mg2+; single complex up to 4 uM protein; 20 mM Tris-HCl pH 7.5, 1 mM DTT, 1 mM EDTA, 12.3 nM DNA, 10 ul, on ice 10 min; 8% PAGE in 0.5x TBE; +/- 10 mM Mg2+; conditions: protein: recombinant; tags: N-terminal H10 (pET-16b); chain copies: 4; four-way Holliday junction HJ11:HJ12:HJ13:HJ14
[3] = biological target: RecUMge (Mycoplasma genitalium, UniProt Q49422 1-166); test: EMSA; on ice, no BSA; three major and one minor complex at 500 nM; 20 mM Tris-HCl pH 7.5, 1 mM DTT, 1 mM EDTA, 12.3 nM DNA, 10 ul, on ice 10 min; 8% PAGE in 0.5x TBE; +/- 10 mM Mg2+
[4] = biological target: T1, RuvAMpn; test: EMSA; no Mg2+; part of the complexes is with residual ss HJ11; 20 mM Tris-HCl pH 7.5, 1 mM DTT, 1 mM EDTA, 12.3 nM DNA, 10 ul, on ice 10 min; 8% PAGE in 0.5x TBE; +/- 10 mM Mg2+; conditions: protein: recombinant; tags: N-terminal H10 (pET-16b); chain copies: 4; 5' overhang 1 nt on HJ11rv
[5] = biological target: T2, RuvAMge; test: as above; conditions: protein: recombinant; tags: N-terminal H10 (pET-16b); chain copies: 4; 5' overhang 1 nt on HJ11rv
[6] = biological target: T1, RuvAMpn; test: EMSA; no Mg2+; efficiency similar to HJ; 20 mM Tris-HCl pH 7.5, 1 mM DTT, 1 mM EDTA, 12.3 nM DNA, 10 ul, on ice 10 min; 8% PAGE in 0.5x TBE; +/- 10 mM Mg2+; conditions: protein: recombinant; tags: N-terminal H10 (pET-16b); single strand

B1: HJ 1.1 (structured_DNA)
DNA 1: GCGACGTGATCACCAGATGATTGCTAGGCATGCTTTCCGCAAGAGAAGC
DNA 2: GGCTTCTCTTGCGGAAAGCATGCCTAGCAATCCTGTCAGCTGCATGGAAC
DNA 3: GGTTCCATGCAGCTGACAGGATTGCTAGGCTCAAGGCGAACTGCTAACGG
DNA 4: ACCGTTAGCAGTTCGCCTTGAGCCTAGCAATCATCTGGTGATCACGTCGC
- binding result [1]: binds
- binding result [2]: binds
- binding result [3]: binds

B2: HJ11/HJ11rv (dsDNA)
DNA 1: GCGACGTGATCACCAGATGATTGCTAGGCATGCTTTCCGCAAGAGAAGC
DNA 2: GGCTTCTCTTGCGGAAAGCATGCCTAGCAATCATCTGGTGATCACGTCGC
- binding result [4]: binds
- binding result [5]: binds

Binder: GCGACGTGATCACCAGATGATTGCTAGGCATGCTTTCCGCAAGAGAAGC (ssDNA) [HJ11]
- binding result [6]: binds
